Reference: the supplement of paper PMC12764529

Experiment: folding stability dG unfold (combined trypsin and chymotrypsin); higher = more stable
Description: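 Folding stability of de novo designed mini-proteins (<80 aa, no Cys; designed by TrROS, TrMRF, ProteinMPNN and the joint model) was measured by cDNA display proteolysis with trypsin and chymotrypsin. Each protease was used at 11 concentrations in a threefold dilution series plus a no-protease condition. K50 was inferred by Bayesian fitting of sequencing counts, and dG unfold was derived against a sequence-predicted unfolded-state K50 (Tsuboyama et al. method). Sequences shown include variable-length N-terminal GS-type padding (SAGGSAGG...) inside a display construct carrying a PA tag. Rows were kept only if the AF2 dimer inter-PAE was >15, to exclude likely homo-oligomers.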

Sequence | folding stability dG unfold
SAGGSAGGMPPDTYVTEVVTTTSNVLGGKDIFRTIVKTTKILPVIEHPAGDGFTLVPPDTPGLESAGGSAGG [r6_405_JUSTAS] | < -1 kcal/mol
SAGGSAGGPRRISLMYKFSPDDGEMEPPSIEDLAKKFFPGAEPKNIDIEHNPNNGYMQVEIPIKSAGGSAGG [r6_81_TrROS] | < -1 kcal/mol
SAGGSAGGSAAPKPVTVEKTIKVPGNDPEKVKKELEPKGWKVLGVDKNTVKAKITLPPGYKKSAGGSAGGSA [r18_168_JUSTAS] | < -1 kcal/mol
SAGGSAGGSADPQKVKEIAEKLQEKGYTVDVDRGPDSWTIRVENPKSGGKKKHKIDDPEDVLSAGGSAGGSA [r18_278_TrROS] | < -1 kcal/mol
SAGGSAGGSAGDIDIKVEYNKENGMYRVRASFPDGKEVPIWMPPGQTPEEAKDQAKELLKSAGGSAGGSAGG [r17_161_TrROS] | < -1 kcal/mol
SAGGSAGGSAGDLPPGKEIEIMMSTPEWADEFADNFPNAKIKIEPMPPKPKYDPETGKGYSAGGSAGGSAGG [r17_126_TrROS] | < -1 kcal/mol
SAGGSAGGSAGEIEIEFEPGEEFLDFIKNLPGPIESIEIEPIDPDKVRARLKLNIPEDLASAGGSAGGSAGG [r11_143_TrMRF] | < -1 kcal/mol
SAGGSAGGSAGEPGFTVRVLKKDLPTGEFSEVEIEVPASVPLEEVIEALDPDQVVAVEVESAGGSAGGSAGG [r11_386_TrMRF] | < -1 kcal/mol
SAGGSAGGSAGEPIPFRIKVELPGNGREQEIDFPIKTPSEANEIANQLPPGFKRVKIEWYSAGGSAGGSAGG [r11_25_TrROS] | < -1 kcal/mol
SAGGSAGGSAGERYYMVEIQPKNGRRIKIMIPDDPEKAVKKARELFPDYEVEVEPMKKPPSAGGSAGGSAGG [r11_850_TrROS] | < -1 kcal/mol
SAGGSAGGSAGGADVPVAELEARGLGREALIAELGEDVTVTTEEHAPGAPVYRLTPLASSAGGSAGGSAGGS [r10_855_JUSTAS] | < -1 kcal/mol
SAGGSAGGSAGGALLLFEEGRRLRYETPEEAEELAAAVRAESGRPDLRISLRELSPEELPSAGGSAGGSAGG [r7_839_JUSTAS] | < -1 kcal/mol
SAGGSAGGSAGGDLEIHIPPGMDPAQADNFAKMFGLKNIKIEPVPPVKPRVYTKNGEPDSAGGSAGGSAGGS [r10_1083_TrROS] | < -1 kcal/mol
SAGGSAGGSAGGDNIMIKIRNPGKPRTFMIKDPEQLKNMSLKELADELVDKHGWPVEIYPSAGGSAGGSAGG [r7_259_TrROS] | < -1 kcal/mol
SAGGSAGGSAGGFKIEGNPMPDDDGPYWHIEVTHWRYNGGGPRPRKRTIMIKDPEDAKEFSAGGSAGGSAGG [r7_896_TrROS] | < -1 kcal/mol
SAGGSAGGSAGGFVGTLKDYPKILKAAKEVGLKVGKIDPKNNKIYVDPSNPEKLKKAIESSAGGSAGGSAGG [r7_285_TrMRF] | < -1 kcal/mol
SAGGSAGGSAGGGGKKKREISIMFEGGTPSDFKREAREIANSPENKDNVDEVEITMMPGSAGGSAGGSAGGS [r10_351_TrROS] | < -1 kcal/mol
SAGGSAGGSAGGGLDDVPEEELRKILEEHGLPPEEVPPDTEVTLELPEGKPIKVRMTGRSAGGSAGGSAGGS [r10_623_JUSTAS] | < -1 kcal/mol
SAGGSAGGSAGGGYRLVTTTERRTLVYREYDPTTDRFRPVKPVPTTIETTLLAPEDELLSAGGSAGGSAGGS [r10_610_JUSTAS] | < -1 kcal/mol
SAGGSAGGSAGGKITEVDTSNNMVEITLKHPGGKRERPIDPGKTMAQILDELKENPDLVISAGGSAGGSAGG [r7_373_TrROS] | < -1 kcal/mol
SAGGSAGGSAGGKKIKIVKVEPGKVKFSLGKKGKNIPGFEKEVKVEVYEIETDLEPLLNSAGGSAGGSAGGS [r10_654_TrMRF] | < -1 kcal/mol
SAGGSAGGSAGGKKQTLVIRSDNKPIPIEYDDDNIKISNPNGKKQEIPPEDLPPDGIEPVSAGGSAGGSAGG [r7_748_TrROS] | < -1 kcal/mol

Sequence | folding stability dG unfold
SAGGSAGGSAGGKLRIFYPNPWQARWRAKTIQNEMMDNGYKIPPNVEIEIHPMRPDPGDWSAGGSAGGSAGG [r7_965_TrROS] | < -1 kcal/mol
SAGGSAGGSAGGKRHRIDNIEPFNNDGEKLYRIRMPGGKEQRFPVGEEFTPNGAEIEPLPSAGGSAGGSAGG [r7_931_TrROS] | < -1 kcal/mol
SAGGSAGGSAGGMKVIPIYSPGKGSKEEIIELVKKKNPNVKKVEVTYNPEEDVATVTIESAGGSAGGSAGGS [r10_225_JUSTAS] | < -1 kcal/mol
SAGGSAGGSAGGMPVSFEELKKLPPNTVLIFSDGTVVTAPEEEVKKPFGKEKIVYVEEKPSAGGSAGGSAGG [r7_643_JUSTAS] | < -1 kcal/mol
SAGGSAGGSAGGMTIRVVPVEITPDSSGVLRRDIEEVAAANPDAEVLETTPTSVLVRYKRSAGGSAGGSAGG [r11_771_JUSTAS] | < -1 kcal/mol
SAGGSAGGSAGGPELGEIEPGPDGYLYVNLKVELPVELPGPDGKGTGPVEGTVRLKVGLSAGGSAGGSAGGS [r10_92_TrMRF] | < -1 kcal/mol
SAGGSAGGSAGGPEWKEIDIPFDTPEDAIDEAEDKLPPDDKIDVHNPDDGQPITFTVPRNSAGGSAGGSAGG [r7_877_TrROS] | < -1 kcal/mol
SAGGSAGGSAGGPIKVETEPYPDGYHRVEIMLPGNGQKKEIHFPNGQTPEQAKDWIKEWSAGGSAGGSAGGS [r10_825_TrROS] | < -1 kcal/mol
SAGGSAGGSAGGPKEIPIKIKIYPPNGRKRERPVPLKSEEQALDQLQEAMPPGWFIEIWSAGGSAGGSAGGS [r10_145_TrROS] | < -1 kcal/mol
SAGGSAGGSAGGPPIPIRIKLEHPDNGKKHTHEFPPGMSLKEVKNYMEKHPGYKIKDIEISAGGSAGGSAGG [r7_624_TrROS] | < -1 kcal/mol
SAGGSAGGSAGGPPPSLPYELDKKVIEKLVKYPEDKLKPVEIKEIETSLFNPLTGTWLDSAGGSAGGSAGGS [r10_248_JUSTAS] | < -1 kcal/mol
SAGGSAGGSAGGPPVPYKIKSPNGRPFPVQINPDSGQIEIEFPGETRKIPLGMNWEIEPVSAGGSAGGSAGG [r7_434_TrROS] | < -1 kcal/mol
SAGGSAGGSAGGPRVTGTPVPGDDEPLLVVEREYTVEVGGGPRPVRVRFVFDHPDEALRSSAGGSAGGSAGG [r7_896_TrMRF] | < -1 kcal/mol
SAGGSAGGSAGGQIRDPDGRKWIRVKGASPNKIKDELSELNPNVEIITNPDPNEMWIRIPSAGGSAGGSAGG [r7_370_TrROS] | < -1 kcal/mol
SAGGSAGGSAGGRVKKDVTVRYRLTVRNPVTGKTTERTLTVHVPVLVDEEAELPPLSEVSAGGSAGGSAGGS [r10_1026_TrMRF] | < -1 kcal/mol
SAGGSAGGSAGGSAMVYRTEVLVESEELPPPGVGGRLRREGEKVIVRKAPPEALEELGRSAGGSAGGSAGGS [r4_274_JUSTAS] | < -1 kcal/mol
SAGGSAGGSAGGSELVGPEKAKEIIKEAYEKGYEEIPILLHLPNGETEEKIIKVPKNKISAGGSAGGSAGGS [r4_342_TrMRF] | < -1 kcal/mol
SAGGSAGGSAGGSENEPIPIQVKIWDPKDGEPVRTIPFNIWPGRSINELANKFPGVEIVSAGGSAGGSAGGS [r4_187_TrROS] | < -1 kcal/mol
SAGGSAGGSAGGSFVPMSQVTKVTPVGDKLVIETPGNPIVFSPEEIPIPEDLPLNFVPRSAGGSAGGSAGGS [r10_665_JUSTAS] | < -1 kcal/mol
SAGGSAGGSAGGSGEDDVEVEVVPLPGDLTRTIERFPGLVRTFVYAPDSEVAEEEFELPSAGGSAGGSAGGS [r4_322_JUSTAS] | < -1 kcal/mol
SAGGSAGGSAGGSGMMVPTTVTITVPAPDGTPVRTVTITTTSPTATLEEIKARVAPFLASAGGSAGGSAGGS [r4_375_JUSTAS] | < -1 kcal/mol
SAGGSAGGSAGGSGMRLVEEVKYSTRKQPTGVPVYEVENLKVKEVPVKITVDSNGVLTLESAGGSAGGSAGG [r11_381_JUSTAS] | < -1 kcal/mol
